Reference: the supplement of paper PMC9233669
Variants at the floor of the assay were thinned out.

How the values were obtained:
biotinyl-Trp-oxazolone = test: self-aminoacylation, catalytic enhancement (BWO) (fold over background); higher = more active; k-Seq, kA / k0A0; sequences stand for … in GGGAAUGGAUCCACAUCUACGAAUUC…UUCACUGCAGACUUGACGAAGCUG
Outline: (§1)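 The uncatalyzed rate is the low-activity peak of a bimodal Gaussian fit, and catalytic enhancement is median kA divided by it. The kA values came from pseudo-first-order fits, with 1000 bootstraps, of per-sequence fraction reacted measured by streptavidin capture, triplicate qPCR and Illumina sequencing. Mutagenized RNA pools with a 21-nt variable region (0.43 μM) were reacted with each biotinyl-aminoacyl-oxazolone at 2–1250 μM in 50 μL HEPES/NaCl/KCl/MgCl2/CaCl2 buffer with 5% acetonitrile, pH 6.9–7.0, for 90 minutes at room temperature.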

biotinyl-Phe-oxazolone = test: self-aminoacylation, catalytic enhancement (BFO) (fold over background); higher = more active; k-Seq, kA / k0A0; sequences stand for … in GGGAAUGGAUCCACAUCUACGAAUUC…UUCACUGCAGACUUGACGAAGCUG
Outline: as §1

| Sequence | self-aminoacylation (biotinyl-Trp-oxazolone) | self-aminoacylation (biotinyl-Phe-oxazolone) |
| --- | --- | --- |
| AAGUCUACUAAUAGUCGCAAG [Fam3.1 aminoacylation ribozyme variant] | 2.11 | 3.17 |
| AAGUGUGCUAAUAGUCGAAAG [Fam3.1 aminoacylation ribozyme variant] | 4.55 | 11.5 |
| AAGUUUCCUAAUAGUCGCACG [Fam3.1 aminoacylation ribozyme variant] | 2.23 | 2.96 |
| AAGUUUGCUAAUAGCCGCAAG [Fam3.1 aminoacylation ribozyme variant] | 2.2 | 6.96 |
| AAGUUUGCUAAUGGUCGCAAA [Fam3.1 aminoacylation ribozyme variant] | 2.87 | 2.48 |
| AAGUUUGCUAGUAGUCGCACG [Fam3.1 aminoacylation ribozyme variant] | 2.21 | 3.09 |
| AAGUUUUCUAUUAGUCGCAAG [Fam3.1 aminoacylation ribozyme variant] | 2.07 | 2.22 |
| ACUCACUUCAAGCAAUCGGUC [Fam1B.1 aminoacylation ribozyme variant] | 5.36 | 9.3 |
| AUACUUCAAACAAUCGGUCUC [Fam1A.1 aminoacylation ribozyme variant] | 7.89 | 13.5 |
| AUUACCAUGGUCAUCGAGGGA [Fam2.1 aminoacylation ribozyme variant] | 2.58 | 2.21 |
| AUUCACCUAGUUCAUCGGGUA [Fam2.2 aminoacylation ribozyme variant] | 2.37 | 5.42 |
| CAACGUCAAACAAUCGGUCUG [Fam1A.1 aminoacylation ribozyme variant] | 2.6 | 3.29 |
| CAACUUCAAACAAUCGGUCAG [Fam1A.1 aminoacylation ribozyme variant] | 11.9 | 19.5 |
| CAACUUCAAACAAUCUGUCUG [Fam1A.1 aminoacylation ribozyme variant] | 2.14 | 4.35 |
| CAACUUCAAACGAUCGGUCUG [Fam1A.1 aminoacylation ribozyme variant] | 2.65 | 2.25 |
| CAAGACUUCAAGCAAUCGGUC [Fam1B.1 aminoacylation ribozyme variant] | 9.73 | 15.3 |
| CCACACCUCAAUCAAUCGGUC [Fam1B.1 aminoacylation ribozyme variant] | 2.88 | 3.88 |
| CCACACUCCAACCAAUCGGUC [Fam1B.1 aminoacylation ribozyme variant] | 2.18 | 3.55 |
| CCACACUUCAACCAAUCGGUU [Fam1B.1 aminoacylation ribozyme variant] | 11.9 | 12.3 |
| CCACACUUCAACCGAUCGGUC [Fam1B.1 aminoacylation ribozyme variant] | 5.96 | 3.75 |
| CCACACUUCAAGUAAUCGGUC [Fam1B.1 aminoacylation ribozyme variant] | 9.7 | 16.4 |
| CCACCCUUCAAUCAAUCGGUC [Fam1B.1 aminoacylation ribozyme variant] | 20.9 | 28.6 |
| CCACGCCUCAAGCAAUCGGUC [Fam1B.1 aminoacylation ribozyme variant] | 6.73 | 10.4 |
| CCACUCUUCAAGGAAUCGGUC [Fam1B.1 aminoacylation ribozyme variant] | 3.24 | 3 |

| Sequence | self-aminoacylation (biotinyl-Trp-oxazolone) | self-aminoacylation (biotinyl-Phe-oxazolone) |
| --- | --- | --- |
| CCACUUCAAAAAAUCGGUCUG [Fam1A.1 aminoacylation ribozyme variant] | 12.1 | 15.2 |
| CCACUUCAAACAUUCGGUCUG [Fam1A.1 aminoacylation ribozyme variant] | 2.73 | 5.58 |
| CCACUUCAAACGAUCGGUCUG [Fam1A.1 aminoacylation ribozyme variant] | 2.62 | 3.03 |
| CCACUUCAAAUAAUCGGUCUG [Fam1A.1 aminoacylation ribozyme variant] | 15.2 | 17.9 |
| CCAGACUUCAAGGAAUCGGUC [Fam1B.1 aminoacylation ribozyme variant] | 5.9 | 6.35 |
| CCAUACUUCAAACAAUCGGUC [Fam1B.1 aminoacylation ribozyme variant] | 30.3 | 66.4 |
| CCCCACUUAAAGCAAUCGGUC [Fam1B.1 aminoacylation ribozyme variant] | 2.05 | 2.09 |
| CCCCACUUCUAGCAAUCGGUC [Fam1B.1 aminoacylation ribozyme variant] | 2.23 | 2.55 |
| CCCCACUUUAAGCAAUCGGUC [Fam1B.1 aminoacylation ribozyme variant] | 2.1 | 2.4 |
| CCUCUCUUCAAGCAAUCGGUC [Fam1B.1 aminoacylation ribozyme variant] | 20 | 36.3 |
| CGACCCUUCAAGCAAUCGGUC [Fam1B.1 aminoacylation ribozyme variant] | 3.13 | 3.2 |
| CGACUUCAAACAAUCGGUCUA [Fam1A.1 aminoacylation ribozyme variant] | 6.02 | 12.7 |
| CUACACUUCAAGCAAUCGGUC [Fam1B.1 aminoacylation ribozyme variant] | 22.8 | 54.5 |
| CUACACUUCAAUCAAUCGGUC [Fam1B.1 aminoacylation ribozyme variant] | 18.5 | 37.4 |
| CUACAGUUCAAGCAAUCGGUC [Fam1B.1 aminoacylation ribozyme variant] | 2.96 | 4.84 |
| CUACUUACAACAAUCGGUCUG [Fam1A.1 aminoacylation ribozyme variant] | 2.34 | 3.29 |
| CUACUUCAAACAAUCGGUCAC [Fam1A.1 aminoacylation ribozyme variant] | 8.51 | 23.1 |
| CUACUUCAAACAAUCGGUCAG [Fam1A.1 aminoacylation ribozyme variant] | 7.09 | 16.7 |
| CUACUUCAAACAAUCGGUCGU [Fam1A.1 aminoacylation ribozyme variant] | 10.3 | 16.3 |
| CUACUUCAAACAAUCGGUCUU [Fam1A.1 aminoacylation ribozyme variant] | 15.3 | 31.2 |
| CUACUUCAAACAAUCGGUUUC [Fam1A.1 aminoacylation ribozyme variant] | 2.18 | 4.72 |
| CUACUUCAAACAAUCUCUCUG [Fam1A.1 aminoacylation ribozyme variant] | 4.21 | 10.1 |
| CUACUUCAAAUAAUCGGUUUG [Fam1A.1 aminoacylation ribozyme variant] | 8.58 | 16 |
